From US20220098307A1 (WUHAN YZY BIOPHARMA, published 2022) come the findings set out here.

For one experiment, the target named is T1, Monkey CD3 (monkey).
T1 construct: whole, on cells; also called CD3 of monkey CD3 positive T cells
Put plainly: flow cytometry, monkey T cells.

The next experiment addresses T2, Human BCMA (human, UniProt Q02223 1-54).
T2 sequence: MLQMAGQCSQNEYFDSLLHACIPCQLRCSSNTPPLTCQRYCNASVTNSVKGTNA
In words: flow cytometry, human tumor cells (BCMA+). The text has this:
1) Cell preparation: T cells isolated from CD3-positive human whole blood were used for a CD3 end affinity detection of multifunctional antibody molecule; positive tumor cells of corresponding antigen were used for detecting affinity of tumor antigen; for example, CD38-positive MM. 1S cells (purchased from the Cell Resource Center of Shanghai Institutes for Biological Sciences, Chinese Academy of Sciences) or RPMI 8226 cells (purchased from the Cell Resource Center of Shanghai Institutes for Biological Sciences, Chinese Academy of Sciences) were used for CD38 antigen detection, and PD-L1 positive H358 cells (purchased from the Cell Resource Center of Shanghai Institutes for Biological Sciences, Chinese Academy of Sciences) were used for PD-L1 antigen detection, and so on. The cells were resuspended with 1% FBS-PBS, adjusted to a density of 4×10⁶/ml, and 50 μl of cells were taken from each well, and then plated at 2×10⁵ per well. Cell plating was operated on ice
2) Addition of the antibody: according to the experimental design, the antibody was diluted gradually, and dilution of antibody was operated on ice. For example, the initial concentration of antibody for dilution was 3000 nM, and the antibody was diluted by 3 times with 11 concentration gradients. The diluted antibody was added to a cell well at 50 μl per well, mixed well, and shaked and incubated at 4° C. 1100 rpm/min for 2 h; after washing, the cells were resuspend in 1% FBS-PBS, and a diluted secondary antibody PE anti-human IgG FC (Biolegend, 409304) was added with a final concentration of 8 ug/ml and a volume of 50 μl/well. At the same time, a well only added with cells and secondary antibody was set as a control, the components were mixed well, and incubated under shaking at 1100 rpm/min at 4° C. for 1 h;
5) Data analysis: the data was analyzed by a flow analysis software FlowJo 7.6 thereby obtaining an average fluorescence intensity of the specific antibody concentration, plotted by a Graphpad Prism 5 with the antibody concentration (nM) as an abscissa and the average fluorescence intensity as an ordinate; the EC50 value was calculated by the method of One site—Specific binding, and the EC50 value indicated the cell affinity of the antibody to the corresponding target antigen.
(In flow cytometry, cells or beads pass a laser one at a time.)

Another experiment deals with T3, Human CD3ε (human, UniProt P07766 23-126).
T3 construct: CD3 on T cells isolated from human whole blood
Put plainly: flow cytometry, human T cells. In a few lines:
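Antibody titrations (11 points, 3-fold from 3000 nM) incubated 2 h at 4° C with 2×10⁵ target cells per well—T cells for CD3, antigen-positive tumor lines such as MM.1S or RPMI 8226 for CD38.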

B1: BCMA-M2-G2D (bispecific antibody, human IgG1, kappa)
chain: QLQLQESGPGLVKPSETLSLTCTVSGGSISSGSYFWGWIRQPPGKGLEWIGSIYYSGITYYNPSLKSRVTISVDTSKNQFSLKLSSVTAADTAVYYCARHDGAVAGLFDYWGQGTLVTVSSASTKGPSVFPLAPSSKSTSGGTAALGCLVKDYFPEPVTVSWNSGALTSGVHTFPAVLQSSGLYSLSSVVTVPSSSLGTQTYICNVNHKPSNTKVDKKVEPKSCDKTHTGGGSAAAQVQLVESGGGVVQPGRSLRLSCAASGFTFSTYAMNWVRQAPGKGLEWVARIRSKYNNYATYYADSVKDRFTISRDDSKNTLYLQMNSLRAEDTAVYYCARHGNFGNSYVSWFAYWGQGTLVTVSSGGGGSGGGGSGGGGSQTVVTQEPSLTVSPGGTVTLTCRSSTGAVTTSNYANWVQQKPGQAPRGLIGGTNKRAPGVPARFSGSLLGGKAALTLSGVQPEDEAEYYCALWYSNLWVFGGGTKVEIKGGGGSDKTHTCPPCPAPPVAGPSVFLFPPKPKDTLMISRTPEVTCVVVDVSHEAPEVQFNWYVDGVEVHNAKTKPREEQFNSTFRVVSVLTVVHQDWLNGKEYKCKVSNKGLPAPIEKTISKTKGQPREPQVYTLPPCRDELTKNQVSLWCLVKGFYPSDIAVEWESNGQPENNYKTTPPVLDSDGSFFLYSKLTVDKSRWQQGNVFSCSVMHEALHNHYTQKSLSLSPGK
heavy: QLQLQESGPGLVKPSETLSLTCTVSGGSISSGSYFWGWIRQPPGKGLEWIGSIYYSGITYYNPSLKSRVTISVDTSKNQFSLKLSSVTAADTAVYYCARHDGAVAGLFDYWGQGTLVTVSSASTKGPSVFPLAPSSKSTSGGTAALGCLVKDYFPEPVTVSWNSGALTSGVHTFPAVLQSSGLYSLSSVVTVPSSSLGTQTYICNVNHKPSNTKVDKKVEPKSCDKTHTCPPCPAPPVAGPSVFLFPPKPKDTLMISRTPEVTCVVVDVSHEAPEVQFNWYVDGVEVHNAKTKPREEQFNSTFRVVSVLTVVHQDWLNGKEYKCKVSNKGLPAPIEKTISKTKGQPREPQVCTLPPSRDELTKNQVSLSCAVKGFYPSDIAVEWESNGQPENNYKTTPPVLDSDGSFFLVSKLTVDKSRWQQGNVFSCSVMHEALHNRFTQKSLSLSPGK
light: SYVLTQPPSVSVAPGQTARITCGGNNIGSKSVHWYQQPPGQAPVVVVYDDSDRPSGIPERFSGNSNGNTATLTISRVEAGDEAVYYCQVWDSSSDHVVFGGGTKLTVLRTVAAPSVFIFPPSDEQLKSGTASVVCLLNNFYPREAKVQWKVDNALQSGNSQESVTEQDSKDSTYSLSSTLTLSKADYEKHKVYACEVTHQGLSSPVTKSFNRGEC
notes: structure 2; BCMA x CD3; CH2 G2DCH2
Take B1: the concentration for a half-maximal effect (EC50) (usually the concentration giving half of the maximal effect) with Monkey CD3 is 510 nM; with Human BCMA, 19.2 nM; with Human CD3ε it was 351 nM.

B2: BCMA-M2-GG2 (bispecific antibody, human IgG1, kappa)
chain: QLQLQESGPGLVKPSETLSLTCTVSGGSISSGSYFWGWIRQPPGKGLEWIGSIYYSGITYYNPSLKSRVTISVDTSKNQFSLKLSSVTAADTAVYYCARHDGAVAGLFDYWGQGTLVTVSSASTKGPSVFPLAPSSKSTSGGTAALGCLVKDYFPEPVTVSWNSGALTSGVHTFPAVLQSSGLYSLSSVVTVPSSSLGTQTYICNVNHKPSNTKVDKKVEPKSCDKTHTGGGSAAAQVQLVESGGGVVQPGRSLRLSCAASGFTFSTYAMNWVRQAPGKGLEWVARIRSKYNNYATYYADSVKDRFTISRDDSKNTLYLQMNSLRAEDTAVYYCARHGNFGNSYVSWFAYWGQGTLVTVSSGGGGSGGGGSGGGGSQTVVTQEPSLTVSPGGTVTLTCRSSTGAVTTSNYANWVQQKPGQAPRGLIGGTNKRAPGVPARFSGSLLGGKAALTLSGVQPEDEAEYYCALWYSNLWVFGGGTKVEIKGGGGSDKTHTCPPGPAPPVAGPSVFLFPPKPKDTLMISRTPEVTCVVVDVSHEDPEVQFNWYVDGVEVHNAKTKPREEQFNSTFRVVSVLTVVHQDWLNGKEYKCKVSNKGLPAPIEKTISKTKGQPREPQVYTLPPCRDELTKNQVSLWCLVKGFYPSDIAVEWESNGQPENNYKTTPPVLDSDGSFFLYSKLTVDKSRWQQGNVFSCSVMHEALHNHYTQKSLSLSPGK
heavy: QLQLQESGPGLVKPSETLSLTCTVSGGSISSGSYFWGWIRQPPGKGLEWIGSIYYSGITYYNPSLKSRVTISVDTSKNQFSLKLSSVTAADTAVYYCARHDGAVAGLFDYWGQGTLVTVSSASTKGPSVFPLAPSSKSTSGGTAALGCLVKDYFPEPVTVSWNSGALTSGVHTFPAVLQSSGLYSLSSVVTVPSSSLGTQTYICNVNHKPSNTKVDKKVEPKSCDKTHTCPPGPAPPVAGPSVFLFPPKPKDTLMISRTPEVTCVVVDVSHEDPEVQFNWYVDGVEVHNAKTKPREEQFNSTFRVVSVLTVVHQDWLNGKEYKCKVSNKGLPAPIEKTISKTKGQPREPQVCTLPPSRDELTKNQVSLSCAVKGFYPSDIAVEWESNGQPENNYKTTPPVLDSDGSFFLVSKLTVDKSRWQQGNVFSCSVMHEALHNRFTQKSLSLSPGK
light: SYVLTQPPSVSVAPGQTARITCGGNNIGSKSVHWYQQPPGQAPVVVVYDDSDRPSGIPERFSGNSNGNTATLTISRVEAGDEAVYYCQVWDSSSDHVVFGGGTKLTVLRTVAAPSVFIFPPSDEQLKSGTASVVCLLNNFYPREAKVQWKVDNALQSGNSQESVTEQDSKDSTYSLSSTLTLSKADYEKHKVYACEVTHQGLSSPVTKSFNRGEC
notes: structure 2; BCMA x CD3; CH2 GG2CH2
Turning to B2, the EC50 with Monkey CD3 came out at 636 nM; in the experiment with Human BCMA, 23.6 nM; with Human CD3ε, 448 nM.

B3: BCMA-M2-PG2 (bispecific antibody, human IgG1, kappa)
chain: QLQLQESGPGLVKPSETLSLTCTVSGGSISSGSYFWGWIRQPPGKGLEWIGSIYYSGITYYNPSLKSRVTISVDTSKNQFSLKLSSVTAADTAVYYCARHDGAVAGLFDYWGQGTLVTVSSASTKGPSVFPLAPSSKSTSGGTAALGCLVKDYFPEPVTVSWNSGALTSGVHTFPAVLQSSGLYSLSSVVTVPSSSLGTQTYICNVNHKPSNTKVDKKVEPKSCDKTHTGGGSAAAQVQLVESGGGVVQPGRSLRLSCAASGFTFSTYAMNWVRQAPGKGLEWVARIRSKYNNYATYYADSVKDRFTISRDDSKNTLYLQMNSLRAEDTAVYYCARHGNFGNSYVSWFAYWGQGTLVTVSSGGGGSGGGGSGGGGSQTVVTQEPSLTVSPGGTVTLTCRSSTGAVTTSNYANWVQQKPGQAPRGLIGGTNKRAPGVPARFSGSLLGGKAALTLSGVQPEDEAEYYCALWYSNLWVFGGGTKVEIKGGGGSDKTHTCPPPPAPPVAGPSVFLFPPKPKDTLMISRTPEVTCVVVDVSHEDPEVQFNWYVDGVEVHNAKTKPREEQFNSTFRVVSVLTVVHQDWLNGKEYKCKVSNKGLPAPIEKTISKTKGQPREPQVYTLPPCRDELTKNQVSLWCLVKGFYPSDIAVEWESNGQPENNYKTTPPVLDSDGSFFLYSKLTVDKSRWQQGNVFSCSVMHEALHNHYTQKSLSLSPGK
heavy: QLQLQESGPGLVKPSETLSLTCTVSGGSISSGSYFWGWIRQPPGKGLEWIGSIYYSGITYYNPSLKSRVTISVDTSKNQFSLKLSSVTAADTAVYYCARHDGAVAGLFDYWGQGTLVTVSSASTKGPSVFPLAPSSKSTSGGTAALGCLVKDYFPEPVTVSWNSGALTSGVHTFPAVLQSSGLYSLSSVVTVPSSSLGTQTYICNVNHKPSNTKVDKKVEPKSCDKTHTCPPPPAPPVAGPSVFLFPPKPKDTLMISRTPEVTCVVVDVSHEDPEVQFNWYVDGVEVHNAKTKPREEQFNSTFRVVSVLTVVHQDWLNGKEYKCKVSNKGLPAPIEKTISKTKGQPREPQVCTLPPSRDELTKNQVSLSCAVKGFYPSDIAVEWESNGQPENNYKTTPPVLDSDGSFFLVSKLTVDKSRWQQGNVFSCSVMHEALHNRFTQKSLSLSPGK
light: SYVLTQPPSVSVAPGQTARITCGGNNIGSKSVHWYQQPPGQAPVVVVYDDSDRPSGIPERFSGNSNGNTATLTISRVEAGDEAVYYCQVWDSSSDHVVFGGGTKLTVLRTVAAPSVFIFPPSDEQLKSGTASVVCLLNNFYPREAKVQWKVDNALQSGNSQESVTEQDSKDSTYSLSSTLTLSKADYEKHKVYACEVTHQGLSSPVTKSFNRGEC
notes: structure 2; BCMA x CD3; CH2 PG2CH2
Consider B3, for which the results for the EC50 with Monkey CD3, with Human BCMA and with Human CD3ε were 716 nM, 24 nM and 599 nM, respectively.
